Data set [1] has as its target T1, L30 (ribosomal protein L30) wild-type (rat, UniProt P62890 1-115). In words: UV cross-linking; 30 mM Tris-HCl pH 8.0, 75 mM KCl, 5 mM MgCl2, 1 mM DTT, 0.04 ug/uL BSA, 10% glycerol, 50 ng/uL yeast tRNA, 30 C 15 min; EMSA gels 0.5X TBE at 4 C; RNase digesti.
Data set [2] concerns the target T1, L30 (ribosomal protein L30) wild-type. In words: EMSA; 5 mM Mg2+; 30 mM Tris-HCl pH 8.0, 75 mM KCl, 5 mM MgCl2, 1 mM DTT, 0.04 ug/uL BSA, 10% glycerol, 50 ng/uL yeast tRNA, 30 C 15 min; EMSA gels 0.5X TBE at 4 C; RNase digesti. (In general: A gel shift assay detects complexes by their altered migration in electrophoresis.)

B1: PHGPx SECIS wild-type (UV cross-linking) (structured_RNA)
RNA: CUGCCCUGUGACCCCUGGAGCCUUCCACCCCGGCACUCAUGACGGUCUGCCUGAAAACCAGCCCGCUGGUGGGGCAGUCCCGAGGACCUGGCGUGCAUCCCCGCCGGAGGAAGGUCCAGACGCUGUGGCC
As to B1, the binding result in data set [1] was “binds”.

B2: PHGPx SECIS U40C (structured_RNA)
RNA: CUGCCCUGUGACCCCUGGAGCCUUCCACCCCGGCACUCACGACGGUCUGCCUGAAAACCAGCCCGCUGGUGGGGCAGUCCCGAGGACCUGGCGUGCAUCCCCGCCGGAGGAAGGUCCAGACGCUGUGGCC
As to B2, in data set [1], the binding result is reported as “no binding”.
As usually defined, the Kd is the constant that tells how readily two partners part at equilibrium. Lower therefore signals higher affinity. As for GGGACCGGAGUGUCGCAAGACGCAGAGAUGGUCC (structured_RNA) [L30 RNA (stem-loop of L30 pre-mRNA)], the dissociation constant Kd in data set [2] stood at 170 nM.

For the origin of these results see publication PMC3706390.
